Measured values published in patent publication US20090269779.

How the values were obtained:
[1] = target: galectin-3 H64P mutant, P17931
[2] = target: galectin-3 A33G and H64P double mutant, P17931
[3] = target: human wild type galectin-3, P17931
[4] = target: galectin-3 A33G mutant, P17931
galectin-3 A33G mutant, P17931, sequence (P17931 whole entry A33G): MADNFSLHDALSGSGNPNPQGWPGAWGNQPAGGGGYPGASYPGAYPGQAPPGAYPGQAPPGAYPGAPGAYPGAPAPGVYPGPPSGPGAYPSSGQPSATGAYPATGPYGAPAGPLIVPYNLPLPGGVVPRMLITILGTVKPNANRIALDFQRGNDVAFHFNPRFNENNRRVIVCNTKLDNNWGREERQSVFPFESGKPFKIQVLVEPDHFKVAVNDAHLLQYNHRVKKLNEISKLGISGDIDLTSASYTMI

human wild type galectin-3, P17931, sequence (P17931 whole entry): as the sequence (P17931 whole entry A33G) above, with G33A counted along it
galectin-3 A33G and H64P double mutant, P17931, sequence (P17931 whole entry, looked up, stated change not applied): as the sequence (P17931 whole entry A33G) above, with G33A counted along it
galectin-3 H64P mutant, P17931, sequence (P17931 whole entry, looked up, stated change not applied): as the sequence (P17931 whole entry A33G) above, with G33A counted along it

| Protein | cleavage of recombinant galectin-3 (Western blot) [1] | cleavage of recombinant galectin-3 (Western blot) [2] | cleavage of recombinant galectin-3 (Western blot) [3] | cleavage of recombinant galectin-3 (Western blot) [4] |
| --- | --- | --- | --- | --- |
| activated human recombinant MMP-9 (protein) MRTPRCGVPDLGRFQTFEGDLKWHHHNITYWIQNYSEDLPRAVIDDAFARAFALWSAVTPLTFTRVYSRDADIVIQFGVAEHGDGYPFDGKDGLLAHAFPPGPGIQGDAHFDDDELWSLGKGVVVPTRFGNADGAACHFPFIFEGRSYSACTTDGRSDGLPWCSTTANYDTDDRFGFCPSERLYTQDGNADGKPCQFPFIFQGQSYSACTTDGRSDGYRWCATTANYDRDKLFGFCPTRADSTVMGGNSAGELCVFPFTFLGKEYSTCTSEGRGDGRLWCATTSNFDSDKKWGFCPDQGYSLFLVAAHEFGHALGLDHSSVPEALMYPMYRFTEGPPLHKDDVNGIRHLYGPRPEPEPRPPTTTTPQPTAPPTVCPTGPPTVHPSERPTAGPTGPPSAGPTGPPTAGPSTATTVPLSPVDDACNVNIFDAIAEIGNQLYLFKDGKYWRFSEGRGSRPQGPFLIADKWPALPRKLDSVFEERLSKKLFFFSGRQVWVYTGASVLGPRRLDKLGLGADVAQVTGALRSGRGKMLLFSGRRLWRFDVKAQMVDPRSASEVDRMFPGVPLDTHDVFQYREKAYFCQDRFYWRVSSRSELNQVDQVGYVTYDILQCPED | MMP-9 did not cleave the H64P mutant | Double mutation at A33G and H64P showed complete resistance to cleavage by both MMP-2 and MMP-9 | Wild type and A33G galectin-3 produced a polypeptide of ~22 kDa consistent with cleavage at Ala62-Tyr63 | Wild type and A33G galectin-3 produced a polypeptide of ~22 kDa consistent with cleavage at Ala62-Tyr63 |
| activated human recombinant MMP-2 (protein) YNFFPRKPKWDKNQITYRIIGYTPDLDPETVDDAFARAFQVWSDVTPLRFSRIHDGEADIMINFGRWEHGDGYPFDGKDGLLAHAFAPGTGVGGDSHFDDDELWTLGEGQVVRVKYGNADGEYCKFPFLFNGKEYNSCTDTGRSDGFLWCSTTYNFEKDGKYGFCPHEALFTMGGNAEGQPCKFPFRFQGTSYDSCTTEGRTDGYRWCGTTEDYDRDKKYGFCPETAMSTVGGNSEGAPCVFPFTFLGNKYESCTSAGRSDGKMWCATTANYDDDRKWGFCPDQGYSLFLVAAHEFGHAMGLEHSQDPGALMAPIYTYTKNFRLSQDDIKGIQELYGASPDIDLGTGPTPTLGPVTPEICKQDIVFDGIAQIRGEIFFFKDRFIWRTVTPRDKPMGPLLVATFWPELPEKIDAVYEAPQEEKAVFFAGNEYWIYSASTLERGYPKPLTSLGLPPDVQRVDAAFNWSKNKKTYIFAGDKFWRYNEVKKKMDPGFPKLIADAWNAIPDNLDAVVDLQGGGHSYFFKGAYYLKLENQSLKSVKFGSIKSDWLGC | The H64P mutant produced a ~27-kDa polypeptide upon incubation with MMP-2 indicating that it is cleaved at Gly32-Ala33 | Double mutation at A33G and H64P showed complete resistance to cleavage by both MMP-2 and MMP-9 | Wild type and A33G galectin-3 produced a polypeptide of ~22 kDa consistent with cleavage at Ala62-Tyr63 | Wild type and A33G galectin-3 produced a polypeptide of ~22 kDa consistent with cleavage at Ala62-Tyr63 |
| human recombinant pro-MMP-9 (protein) APRQRQSTLVLFPGDLRTNLTDRQLAEEYLYRYGYTRVAEMRGESKSLGPALLLLQKQLSLPETGELDSATLKAMRTPRCGVPDLGRFQTFEGDLKWHHHNITYWIQNYSEDLPRAVIDDAFARAFALWSAVTPLTFTRVYSRDADIVIQFGVAEHGDGYPFDGKDGLLAHAFPPGPGIQGDAHFDDDELWSLGKGVVVPTRFGNADGAACHFPFIFEGRSYSACTTDGRSDGLPWCSTTANYDTDDRFGFCPSERLYTQDGNADGKPCQFPFIFQGQSYSACTTDGRSDGYRWCATTANYDRDKLFGFCPTRADSTVMGGNSAGELCVFPFTFLGKEYSTCTSEGRGDGRLWCATTSNFDSDKKWGFCPDQGYSLFLVAAHEFGHALGLDHSSVPEALMYPMYRFTEGPPLHKDDVNGIRHLYGPRPEPEPRPPTTTTPQPTAPPTVCPTGPPTVHPSERPTAGPTGPPSAGPTGPPTAGPSTATTVPLSPVDDACNVNIFDAIAEIGNQLYLFKDGKYWRFSEGRGSRPQGPFLIADKWPALPRKLDSVFEERLSKKLFFFSGRQVWVYTGASVLGPRRLDKLGLGADVAQVTGALRSGRGKMLLFSGRRLWRFDVKAQMVDPRSASEVDRMFPGVPLDTHDVFQYREKAYFCQDRFYWRVSSRSELNQVDQVGYVTYDILQCPED | – | – | The cleavage products were not seen when galectin-3 was incubated alone or with pro-MMPs | – |
| human recombinant pro-MMP-2 (protein) APSPIIKFPGDVAPKTDKELAVQYLNTFYGCPKESCNLFVLKDTLKKMQKFFGLPQTGDLDQNTIETMRKPRCGNPDVANYNFFPRKPKWDKNQITYRIIGYTPDLDPETVDDAFARAFQVWSDVTPLRFSRIHDGEADIMINFGRWEHGDGYPFDGKDGLLAHAFAPGTGVGGDSHFDDDELWTLGEGQVVRVKYGNADGEYCKFPFLFNGKEYNSCTDTGRSDGFLWCSTTYNFEKDGKYGFCPHEALFTMGGNAEGQPCKFPFRFQGTSYDSCTTEGRTDGYRWCGTTEDYDRDKKYGFCPETAMSTVGGNSEGAPCVFPFTFLGNKYESCTSAGRSDGKMWCATTANYDDDRKWGFCPDQGYSLFLVAAHEFGHAMGLEHSQDPGALMAPIYTYTKNFRLSQDDIKGIQELYGASPDIDLGTGPTPTLGPVTPEICKQDIVFDGIAQIRGEIFFFKDRFIWRTVTPRDKPMGPLLVATFWPELPEKIDAVYEAPQEEKAVFFAGNEYWIYSASTLERGYPKPLTSLGLPPDVQRVDAAFNWSKNKKTYIFAGDKFWRYNEVKKKMDPGFPKLIADAWNAIPDNLDAVVDLQGGGHSYFFKGAYYLKLENQSLKSVKFGSIKSDWLGC | – | – | The cleavage products were not seen when galectin-3 was incubated alone or with pro-MMPs | – |
